Laboratory results reported in the supplement of paper PMC10567573.
± gives the standard deviation.

Test: protein stability index of a GFP-peptide fusion (GPS, HEK-293T) (PSI 1-6); higher = more stable
[1] = treatment: DMSO, c terminus: a fixed tail appended
[2] = treatment: MLN4924 1 uM, 8 h, c terminus: a fixed tail appended
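Further: 24-mer peptide tiles fused after GFP, lentivirally expressed, FACS-sorted into six equal bins by GFP/DsRed ratio, decoded by Illumina sequencing, PSI is the read-weighted mean bin number.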

Sequence	protein stability index [1]	protein stability index [2]	protein stability index (treatment: DMSO, c terminus: native)	protein stability index (treatment: MLN4924 1 uM, 8 h, c terminus: native)
PMLWNPSGTPKRYSLELGKAIKQK [C22orf31]	3.59 ± 0.23	3.56 ± 0.14	–	–
EPSELDNPFQDPAVIQHRPSRQYA [SCAMP3]	4.67 ± 0.22	4.77 ± 0.13	–	–
LFRKDVDDATLSRLELERKIESLM [PRPH]	3.06 ± 0.22	3.33 ± 0.29	–	–
DYFPSEDFYRCGYCKNESGSRSNG [ATE1]	3.07 ± 0.32	3.35 ± 0.49	–	–
TLQQFNIKLRPPGAEKPSWLEEQ [ARFIP2]	–	–	3.55 ± 0.34	3.62 ± 0.35
AGGSSSTPTPQALYPDLSCPEGLE [SPSB2]	5.15 ± 0.31	5.21 ± 0.25	–	–
TLWDVFGANKEVQELLERGLLQLD [RSAD1]	2.33 ± 0.25	2.64 ± 0.11	–	–
CEEWSFFHAYYYCFITLTTIGFGD [KCNK9]	3.33 ± 0.098	2.96 ± 0.37	–	–
LPTDGSTGVELAPRSAEPGYLVTK [PCDHGA10]	4.52 ± 0.17	4.66 ± 0.15	–	–
RLHHPHKSVQHVVLQALFYLLDRA [PTPN9]	2.28 ± 0.21	2.13 ± 0.36	–	–
NISHTKEKKKGKAKKKRLTKADIG [WASL]	4.78 ± 0.23	4.81 ± 0.26	–	–
PIAPEVEDPEENPYGPPPDAVQTS [RBBP5]	5.56 ± 0.17	5.54 ± 0.19	–	–
EHPFLVNLWYSFQDEEDMFMVVDL [STK32A]	2.9 ± 0.73	2.63 ± 0.58	–	–
LQFLYTGQLDEKEKDLVGLAQIAE [RHOBTB1]	2.38 ± 0.29	2.83 ± 0.25	–	–
YTMLLGRPPFETTNLKETYRCIRE [PLK2]	2.32 ± 0.3	2.4 ± 0.22	–	–
VCKGLPQHEEICLGLFTLILTEPA [INTS3]	2.53 ± 0.47	2.5 ± 0.48	–	–
LSQAPAEGPDLVPAALGSLTTAQI [HES6]	4.35 ± 0.32	4.36 ± 0.61	–	–
DHPIVETLRQKAEADKNDKAVKDL [HSP90AB1]	5.58 ± 0.29	5.64 ± 0.14	–	–
AGQRGEPGPKGDPGEKSHWGEGLH [EMID1]	4.34 ± 0.36	–	–	–
SKNDNGKPDSVGLPPCAVRNLQDL [PCMTD1]	4.85 ± 0.44	4.58 ± 0.35	–	–
WHLKQSPASPERDYSPYYKTIEEL [KRT13]	3.26 ± 0.094	3.29 ± 0.26	–	–
SLALVQNGDVSAPSAILRTPESTK [ANKRD40]	4.07 ± 0.36	4.06 ± 0.17	–	–
LEEVNDEGYTPLMEAAREGHEEMV [ANKRD17]	5.49 ± 0.08	5.52 ± 0.23	–	–

Sequence	protein stability index [1]	protein stability index [2]	protein stability index (treatment: DMSO, c terminus: native)	protein stability index (treatment: MLN4924 1 uM, 8 h, c terminus: native)
SPQEDGQIMFDVEMHTSRDHSSQS [BNIP3L]	5.21 ± 0.2	5.21 ± 0.13	–	–
YKRRIDAENSPYLNPQLVQPAKKP [ESRRG]	4.01 ± 0.27	3.85 ± 0.33	–	–
EAKSAQPADGWKGERPRSEEDNEL [GCH1]	5.56 ± 0.098	5.35 ± 0.16	–	–
MDLMVEVSPRRIFANGHTYHINSI [PPP2R2C]	2.91 ± 0.41	2.8 ± 0.6	–	–
VPLGFHYETKYVVLSYLGLLSQEK [BCL2L13]	3.25 ± 0.93	2.4 ± 0.91	–	–
FFFLRMDENYNLLPHGVNFQDAIF [CCDC3]	2.79 ± 0.43	2.97 ± 0.76	–	–
PYAMKPIDYYTETKILQERAVLGA [NSDHL]	2.85 ± 0.14	3.06 ± 0.18	–	–
DHPGIHEPLEPEVKYVGNMHGNEA [CPN1]	4.98 ± 0.56	5.08 ± 0.19	–	–
ADSMLMQGSRGLTDQAIFYAVTPL [HDAC6]	2.54 ± 0.39	2.46 ± 0.44	–	–
DNEYAYLKAIIFFDPDAKGLSDPG [HNF4A]	1.92 ± 0.19	2.14 ± 0.092	–	–
KNELERDSKIVVPPLPGKALKRQL [SNX12]	4.5 ± 0.26	4.56 ± 0.2	–	–
KASGKNKHFKVQLVDNVYCIGQRR [NCK2]	3.06 ± 0.23	3.2 ± 0.16	–	–
NLSYKQVKTWFQNQRMKSKRWQKN [NANOGP8]	2.54 ± 0.23	2.57 ± 0.33	–	–
APAPSQVKSKAKKTVDKHSDEYKI [CEBPB]	5.36 ± 0.17	5.37 ± 0.25	–	–
TSAAALSPMSAATLGGLNPSPSEV [SMTNL2]	4.61 ± 0.21	4.62 ± 0.31	–	–
SMNFSMMSTNTVGLGLPMSRSQNT [CLINT1]	3.19 ± 0.36	3.44 ± 0.38	–	–
DIYKQECSSRPLQKGSHPMCKEHE [TRIM63]	4.49 ± 0.24	4.67 ± 0.23	–	–
TEYQKQLLAAQVQLQCSPAELQAE [FBF1]	4.39 ± 0.31	4.3 ± 0.2	–	–
SQKLNFREHAKARVDHGAEIITQS [MAP2]	3.98 ± 0.28	4.34 ± 0.38	–	–
GETDEVTKTEDRELVLRKDCPKIV [ZSCAN9]	5.48 ± 0.14	5.44 ± 0.24	–	–
RNRPSFDAILYYYQSGGRIRRPVN [KCNA3]	2.3 ± 0.22	2.58 ± 0.31	–	–
ALKEELLFMKKNHEEEVKGLQAQI [KRT18]	3.79 ± 0.36	3.95 ± 0.28	–	–
DPDECGSDYISEFRFAPNHTKELE [EPB41L3]	2.91 ± 0.91	3.67 ± 0.79	–	–

Sequence	protein stability index [1]	protein stability index [2]	protein stability index (treatment: DMSO, c terminus: native)	protein stability index (treatment: MLN4924 1 uM, 8 h, c terminus: native)
EETESSDDVEVLTLKKFKGDLAYR [C8orf76]	4.71 ± 0.19	4.61 ± 0.16	–	–
MSLEGTEKASWLGEQPQFWSKTQV [ELF3]	3.31 ± 0.42	3.33 ± 0.16	–	–
IRQVLQGLDYLHSKCKIIHTDIKP [SRPK2]	2.35 ± 0.44	2.22 ± 0.23	–	–
LKTSRKDVKDKETTENENTKFEVR [CHGB]	5.03 ± 0.11	5.22 ± 0.092	–	–
ISDFGRQQLLPPFPSLHQSLPQNQ [EHMT1]	3.45 ± 0.14	3.28 ± 0.23	–	–
GPWSCENFNPLLVAGGVAVAAIAL [CEND1]	3.34 ± 0.4	2.58 ± 0.9	–	–
ALMHTLQRHRDILQVIYWARDVFI [GOSR1]	2.84 ± 0.5	2.26 ± 0.47	–	–
ETELSLRQLVEADINGLRRILDEL [KRT36]	3.12 ± 0.3	3.36 ± 0.34	–	–
LAARRQWRDECLMRLAKLKSQVQP [CRYL1]	2.35 ± 0.36	2.52 ± 0.79	–	–
EVREPALRPAKRELRGAEPGRPAR [SPSB4]	4.48 ± 0.39	4.9 ± 0.22	–	–
LASSLGNLNAATDDPENKKTSSSS [CDC14A]	5.43 ± 0.15	5.53 ± 0.15	–	–
MINSTSTQPPDESCSQNLLITQQI [P2RY14]	4.24 ± 0.16	4.26 ± 0.096	–	–
EEKAFESVIEPVQESSFRSRKIAV [MIA2]	4.31 ± 0.16	4.11 ± 0.22	–	–
EMRFAKMPDEPVEAPALPAPAAPM [BRD3]	4.66 ± 0.078	4.8 ± 0.24	–	–
CLQQKQVVAEAQTRVSQLGLQVEG [LRRC45]	3.86 ± 0.24	3.8 ± 0.38	–	–
LSTFSVPYFLFQHWATGYSKSSHP [SOAT1]	2.11 ± 0.4	2.56 ± 0.79	–	–
KMEIYQKENKDVIQKNKLKLTREQ [MNAT1]	3.89 ± 0.41	4.16 ± 0.34	–	–
NGLALGPDLNILEDSAESRPWRAG [PSD2]	4 ± 0.14	4.24 ± 0.38	–	–
FTEAMTHFPASPFWSVMFFLMLIN [SLC6A17]	2.36 ± 0.23	2.14 ± 0.56	–	–
SPIKPGDIKRGIPNYEFKLGKITF [UFD1]	2.65 ± 0.34	2.52 ± 0.39	–	–
DIFPELDDILYHVKGMQRIVNQWS [DLC1]	2.42 ± 0.13	2.49 ± 0.12	–	–
FPLMTIEEFAAGPAQSGILSDREV [BTBD1]	3.83 ± 0.33	3.98 ± 0.18	–	–
SHQCAHCEKTFNRKDHLKNHLQTH [PLAGL1]	5.03 ± 0.15	5.04 ± 0.14	–	–

Sequence	protein stability index [1]	protein stability index [2]	protein stability index (treatment: DMSO, c terminus: native)	protein stability index (treatment: MLN4924 1 uM, 8 h, c terminus: native)
SFIITLGCNSVLIQFATPNDFCSF [CARM1]	3.3 ± 0.25	2.75 ± 0.45	–	–
AAQEGHLELVKYLLAAGANVHATT [ANKRD17]	2.34 ± 0.3	2.74 ± 0.35	–	–
NYYEVGSNRGAYVKLGPALTPHIV [PPEF2]	2.19 ± 0.2	2.55 ± 0.32	–	–
LQRVPSYDSFDSEDYPAALPNHKP [ETS1]	4.45 ± 0.18	4.53 ± 0.17	–	–
LTRPVPAGADLPPPKIRLKPHRLG [PWWP2B]	3.91 ± 0.29	3.73 ± 0.21	–	–
LSSSEGLEPGSADPLANGCQGVSE [PSD2]	5.39 ± 0.24	5.49 ± 0.12	–	–
DKWVNDPHRMDRRLLALIYLAHAS [GOLPH3]	2.63 ± 0.91	2.1 ± 0.31	–	–
DEGEEFDDWEDDYDYPEEEQLSGA [EID1]	5.39 ± 0.22	5.3 ± 0.22	–	–
EFKSSFSQSFSLYVKYQVAIHQDP [ATE1]	2.63 ± 0.95	2.52 ± 0.95	–	–
EMEEELRYAPLSFRNPMMSKLRNY [VTI1B]	2.78 ± 0.28	3.01 ± 0.25	–	–
PEFVAPEIVNYEPLGLEADMWSIG [DAPK3]	3.46 ± 0.24	3.93 ± 0.7	–	–
GDLQDTKENREEARFQDKQYSSHH [CHGB]	5.18 ± 0.21	5.02 ± 0.35	–	–
RPVNKLAELQCEVAALREEQKVLS [RASAL3]	3.99 ± 0.35	4.19 ± 0.26	–	–
DSGQYWPSVYHAMPSPCSCMSFNP [WDFY2]	2.37 ± 0.19	2.31 ± 0.44	–	–
SLYGENSNSLSSAEPLKEDKPVTG [ATF6]	4.54 ± 0.1	4.58 ± 0.22	–	–
LRKYSFDGLDLDWEYPGSQGSPAV [CHIT1]	2.32 ± 0.23	2.61 ± 0.38	–	–
PGGVYAGPEPPPVYTNLSSYSPAS [JUNB]	3.94 ± 0.27	4.18 ± 0.41	–	–
ELDAIIEEVDEDGSGTIDFEEFLV [TNNC2]	4.4 ± 0.22	4.33 ± 0.23	–	–
EDEDEDEDEDEDKEEEEEDCSEEY [TAF7L]	5.65 ± 0.31	5.58 ± 0.13	–	–
VTLGGVLRQQLVVSKELRMYDEKA [KLHL13]	2.95 ± 0.25	3.02 ± 0.41	–	–
